{
  "source": "paper PMC4506093",
  "key": {"[1]": {"target": "highly purified 26S proteasome, extracted from transformed HEK cells"}, "[2]": {"target": "highly purified 26S proteasome, extracted from transformed HEK cells", "remark": "listed apart in the source"}},
  "data": [
    {"substance": "recombinant IDE expressed in Spodoptera frugiperda (from UniProt P35559 1-1019) (enzyme)", "values": [
      {"measurement": "inhibition of the chymotryptic-like activity (50 micromol/L Suc-LLVY-AMC) of 1 nanomol/L 26S proteasome by IDE from 1 nanomol/L to 50 nanomol/L at 37°C; value at 50 nanomol/L IDE", "setting": "[1]", "result": 55, "unit": "%"},
      {"measurement": "inhibition of the tryptic-like activity (50 micromol/L Boc-LLR-AMC) of 1 nanomol/L 26S proteasome by IDE from 1 nanomol/L to 50 nanomol/L at 37°C; value at 50 nanomol/L IDE", "setting": "[1]", "result": "65 to 70", "unit": "%"},
      {"measurement": "inhibition of the caspase-like activity (50 micromol/L Z-LLE-AMC, after subtracting IDE's own cleavage) of 1 nanomol/L 26S proteasome by IDE up to 50 nanomol/L at 37°C; value at 50 nanomol/L IDE", "setting": "[2]", "result": 60, "unit": "%"}
    ]}
  ]
}
